From patent US6991909B2, “Enkurin and uses thereof” (University of Massachusetts, priority 2002, dated 2006)

T1: TRPC2 stably expressed in HEK-293 cells (mouse, UniProt Q9R244 1-1172)
T1 sequence (looked up): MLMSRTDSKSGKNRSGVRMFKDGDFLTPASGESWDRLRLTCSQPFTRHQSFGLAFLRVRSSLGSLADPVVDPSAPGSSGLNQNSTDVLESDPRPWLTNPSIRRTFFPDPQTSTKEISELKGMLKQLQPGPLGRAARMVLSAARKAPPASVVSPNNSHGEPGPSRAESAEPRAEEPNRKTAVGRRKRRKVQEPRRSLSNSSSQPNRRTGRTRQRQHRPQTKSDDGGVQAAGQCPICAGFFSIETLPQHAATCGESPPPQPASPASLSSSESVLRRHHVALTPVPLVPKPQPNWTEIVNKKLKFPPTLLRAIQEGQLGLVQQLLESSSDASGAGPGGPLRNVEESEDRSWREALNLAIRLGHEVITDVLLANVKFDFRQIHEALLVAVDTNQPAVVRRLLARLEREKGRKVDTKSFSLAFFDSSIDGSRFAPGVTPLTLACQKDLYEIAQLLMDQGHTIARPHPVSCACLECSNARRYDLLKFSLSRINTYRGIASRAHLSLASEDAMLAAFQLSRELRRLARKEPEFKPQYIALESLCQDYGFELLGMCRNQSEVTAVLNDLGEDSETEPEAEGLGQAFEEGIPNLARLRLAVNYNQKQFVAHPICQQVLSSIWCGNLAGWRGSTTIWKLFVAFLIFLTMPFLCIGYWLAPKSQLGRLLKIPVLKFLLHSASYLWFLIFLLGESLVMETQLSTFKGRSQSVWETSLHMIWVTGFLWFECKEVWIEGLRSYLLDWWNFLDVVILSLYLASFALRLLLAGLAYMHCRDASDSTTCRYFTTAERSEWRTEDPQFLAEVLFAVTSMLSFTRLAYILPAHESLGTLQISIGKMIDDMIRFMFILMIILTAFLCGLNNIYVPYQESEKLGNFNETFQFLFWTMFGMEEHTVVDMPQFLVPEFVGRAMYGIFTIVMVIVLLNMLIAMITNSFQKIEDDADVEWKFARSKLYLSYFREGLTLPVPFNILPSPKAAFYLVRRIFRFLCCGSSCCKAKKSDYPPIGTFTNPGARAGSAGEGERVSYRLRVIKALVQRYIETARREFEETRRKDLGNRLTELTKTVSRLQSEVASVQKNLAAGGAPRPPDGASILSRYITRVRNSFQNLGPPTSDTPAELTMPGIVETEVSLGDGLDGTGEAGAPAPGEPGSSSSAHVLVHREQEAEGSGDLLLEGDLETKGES

T2: enkurin-HA (Mus musculus (Mouse)) (UniProt Q6SP97)
T2 sequence: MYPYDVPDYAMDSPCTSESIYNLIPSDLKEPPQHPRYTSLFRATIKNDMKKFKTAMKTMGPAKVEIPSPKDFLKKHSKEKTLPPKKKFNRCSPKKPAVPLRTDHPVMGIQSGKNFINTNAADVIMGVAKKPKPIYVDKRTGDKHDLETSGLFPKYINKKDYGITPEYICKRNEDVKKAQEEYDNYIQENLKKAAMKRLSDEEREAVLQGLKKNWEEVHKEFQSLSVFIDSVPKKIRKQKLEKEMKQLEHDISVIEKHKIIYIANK

B1: enkurin (other)
chain: MDSPCTSESIYNLIPSDLKEPPQHPRYTSLFRATIKNDMKKFKTAMKTMGPAKVEIPSPKDFLKKHSKEKTLPPKKKFNRCSPKKPAVPLRTDHPVMGIQSGKNFINTNAADVIMGVAKKPKPIYVDKRTGDKHDLETSGLFPKYINKKDYGITPEYICKRNEDVKKAQEEYDNYIQENLKKAAMKRLSDEEREAVLQGLKKNWEEVHKEFQSLSVFIDSVPKKIRKQKLEKEMKQLEHDISVIEKHKIIYIANK

Experiments:
[1] = molecular target: T1, TRPC2 stably expressed in HEK-293 cells; experiment: cell-based or functional assay
TRPC2 channel = experiment: Perforated whole cell patch clamp of ATP-evoked currents in HEK-293 cells stably transfected with TRPC2; format: cell-based, mouse
Excerpt: The effects of enkurin on the ion channel activity of TRPC2 were examined using HEK-293 cells that were stably transfected with TRPC2. HEK cells provide a good model for the study of receptor-activated ion channels since they have very low levels of endogenous ion channel activity and thus provide a relatively uncomplicated model for the study of exogenous channels. These cells also have endogenous […] receptors that regulate phospholipase C (PLC), thereby providing a facile and reversible means for activating PLC-dependent ion channels, HEK cells have been used to study TRPC2 function (Jungnickel et al., supra 2001).
In experiments on the TRPC2 channel in HEK cells, ion channel activity was measured using the perforated, whole cell patch clamp. This configuration permits the determination of ion currents while simultaneously maintaining cytoplasmic integrity.
ATP ([…]) evoked an inward current in TRPC2-expressing HEK cells (Derassi et al, 1998, Trends Cell Biol 8:84-87) that reaches peak amplitude in 20-30 seconds. However, when TRPC2 and enkurin were co-expressed (trace 2), the evoked current was 5-6 times larger (131+/−12 pA, n=5). This current activates about 25 times faster (peak amplitude in 0.5-1 seconds) and inactivates more rapidly. Total TRPC2 current, as estimated by integrating the areas beneath these traces, is increased nine +/−two-fold by enkurin. […] Anti-RDAS blocked >95% of the ATP-evoked current in cells that had been co-transfected with TRPC2 and with enkurin (trace 2). Thus, enkurin is stimulating TRPC2 currents, not acting at some undefined endogenous channel or forming a channel itself.
In the assay, HEK cells are used that constitutively express TRPC2. Such cell lines can be produced using methods known in the art. The line should express reproducible levels of TRPC2 current. In a line that we developed, enkurin increased the peak amplitude of ATP-evoked TRPC2 currents by >5-6 fold and the activation and inactivation rates by 25 fold. In addition, this signal can be “zero-ed” using anti-RDAS, the TRPC2 blocking antibody (FIG. 7). Given this magnitude of current enhancement by enkurin in such a cell line, even subtle effects of enkurin mutants, candidate compounds, or antisense molecules are detectable.

[2] = molecular target: T2, enkurin-HA (Mus musculus (Mouse)); experiment: co-immunoprecipitation with anti-HA-Sepharose from HEK/TRPC2 cell extracts, blot with anti-RDAS; peptide competes with TRPC2
[3] = TRPC2 and enkurin co-expressed vs TRPC2 alone

| Molecule | activation rate of the ATP-evoked current [1] [fold] | total TRPC2 current (integrated area beneath traces) [1] [fold] | time to peak amplitude (TRPC2 channel; TRPC2 and enkurin co-expressed) [s] | current activates faster (TRPC2 channel; [3]) | increase of peak amplitude of ATP-evoked TRPC2 current (TRPC2 channel; [3]) | increase of total TRPC2 current, estimated by integrating areas beneath traces (TRPC2 channel; [3]) | ATP-evoked current (TRPC2 channel; TRPC2 and enkurin co-expressed, n=5) | stimulation of ATP-evoked current relative to TRPC2 alone (TRPC2 channel; enkurin co-expressed with deletion mutant of TRPC2 lacking the PKD1 domain) | reduction of co-immunoprecipitation of TRPC2 with enkurin-HA [2] [%] |
| --- | --- | --- | --- | --- | --- | --- | --- | --- | --- |
| B1 | ~25 | 9 | 0.5 to 1 | about 25 times | 5-6 fold | nine +/−two | 131+/−12 pA | no stimulation | – |
| LPQHAATCGESPPPQPASPASLSSS [TRPC2336-361 peptide] | – | – | – | – | – | – | – | – | > 90 |
